From US20140087995A1 (published 2014)
Numbered stars: 1 amine (or outer) side, 2 acyl side, 3 side chain; on linkers, the order of the positions; unused ones are H or OH. Bridge positions count the residues as written; N and C are the ends. Side chains are listed from the residue outwards. Ends that are not written are not given here. * marks the point of attachment. C20 diacid = O=C(O)CCCCCCCCCCCCCCCCCCC(=O)*; γGlu = O=C(O)[C@H](CCC(=O)[*:2])N[*:1]; AEEA = NCCOCCOCC(=O)O

T1: human amylin receptor (amylin 3(a) receptor: human calcitonin receptor co-expressed with RAMP-3) (human, UniProt P30988 25-474; O60896 24-148, limits assumed)
T1 sequence (looked up) 1: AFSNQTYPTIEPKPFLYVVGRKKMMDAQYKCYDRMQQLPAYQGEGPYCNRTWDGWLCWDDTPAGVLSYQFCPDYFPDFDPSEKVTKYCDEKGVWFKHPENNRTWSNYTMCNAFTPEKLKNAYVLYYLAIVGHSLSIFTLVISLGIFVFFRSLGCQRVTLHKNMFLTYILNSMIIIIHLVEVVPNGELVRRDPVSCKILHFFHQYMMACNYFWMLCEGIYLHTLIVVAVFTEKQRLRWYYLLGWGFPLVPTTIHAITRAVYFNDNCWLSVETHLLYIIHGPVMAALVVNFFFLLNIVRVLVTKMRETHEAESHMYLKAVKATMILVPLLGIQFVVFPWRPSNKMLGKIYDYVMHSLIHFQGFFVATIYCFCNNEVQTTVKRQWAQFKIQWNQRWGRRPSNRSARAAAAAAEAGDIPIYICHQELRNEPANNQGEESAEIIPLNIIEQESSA
T1 sequence (looked up) 2: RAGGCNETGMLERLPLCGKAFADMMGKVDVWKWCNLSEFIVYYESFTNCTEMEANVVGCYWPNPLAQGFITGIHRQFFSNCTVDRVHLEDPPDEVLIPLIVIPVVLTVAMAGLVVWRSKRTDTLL

T2: human calcitonin receptor (human, UniProt P30988 25-474)
T2 sequence (looked up): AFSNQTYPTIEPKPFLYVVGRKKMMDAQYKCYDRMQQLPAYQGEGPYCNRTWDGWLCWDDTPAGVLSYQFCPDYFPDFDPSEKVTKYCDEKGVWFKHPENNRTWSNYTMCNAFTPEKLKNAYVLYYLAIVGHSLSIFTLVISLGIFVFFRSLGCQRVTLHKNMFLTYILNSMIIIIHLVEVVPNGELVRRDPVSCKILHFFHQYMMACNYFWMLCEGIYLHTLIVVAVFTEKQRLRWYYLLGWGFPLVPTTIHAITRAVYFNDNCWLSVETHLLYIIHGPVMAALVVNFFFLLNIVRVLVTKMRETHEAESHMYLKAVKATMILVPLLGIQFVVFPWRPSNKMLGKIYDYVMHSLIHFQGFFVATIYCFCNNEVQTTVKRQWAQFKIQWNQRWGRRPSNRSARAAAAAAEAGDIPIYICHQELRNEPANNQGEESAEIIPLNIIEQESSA


Tests used:
[1] = biological target: T1, human amylin receptor (amylin 3(a) …); experiment: cell-based or functional assay
[2] = biological target: T2, human calcitonin receptor; experiment: cell-based or functional assay

Row | Binder | hAmylin-R funct. EC50 [1] | Ratio hCT/hAmylin funct. (hCTR EC50 against hAmylin-R EC50) [2] | hCTR funct. EC50 [2]
1 | K([AEEA-γGlu-C20 diacid])CNTATCATQRLANFLRHSSPNFGAIPSSTNVGSNTY-NH2 (disulfide 2-7; N-terminus assumed; SMILES CC[C@H](C)[C@H](NC(=O)[C@H](C)NC(=O)CNC(=O)[C@H](Cc1ccccc1)NC(=O)[C@H](CC(N)=O)NC(=O)[C@@H]1CCCN1C(=O)[C@H](CO)NC(=O)[C@H](CO)NC(=O)[C@H](Cc1c[nH]cn1)NC(=O)[C@H](CCCNC(=N)N)NC(=O)[C@H](CC(C)C)NC(=O)[C@H](Cc1ccccc1)NC(=O)[C@H](CC(N)=O)NC(=O)[C@H](C)NC(=O)[C@H](CC(C)C)NC(=O)[C@H](CCCNC(=N)N)NC(=O)[C@H](CCC(N)=O)NC(=O)[C@@H](NC(=O)[C@H](C)NC(=O)[C@@H]1CSSC[C@H](NC(=O)[C@@H](N)CCCCNC(=O)COCCOCCNC(=O)CC[C@H](NC(=O)CCCCCCCCCCCCCCCCCCC(=O)O)C(=O)O)C(=O)N[C@@H](CC(N)=O)C(=O)N[C@@H]([C@@H](C)O)C(=O)N[C@@H](C)C(=O)N[C@@H]([C@@H](C)O)C(=O)N1)[C@@H](C)O)C(=O)N1CCC[C@H]1C(=O)N[C@@H](CO)C(=O)N[C@@H](CO)C(=O)N[C@H](C(=O)N[C@@H](CC(N)=O)C(=O)N[C@H](C(=O)NCC(=O)N[C@@H](CO)C(=O)N[C@@H](CC(N)=O)C(=O)N[C@H](C(=O)N[C@@H](Cc1ccc(O)cc1)C(N)=O)[C@@H](C)O)C(C)C)[C@@H](C)O, also called compound 41) | 0.26 nM | 16.7 | 4.35 nM
2 | K([AEEA-γGlu-C20 diacid])CNTATCATQRLAAFLRHSSPNFGAIPSSTPVGSNTY-NH2 (disulfide 2-7; N-terminus assumed; SMILES CC[C@H](C)[C@H](NC(=O)[C@H](C)NC(=O)CNC(=O)[C@H](Cc1ccccc1)NC(=O)[C@H](CC(N)=O)NC(=O)[C@@H]1CCCN1C(=O)[C@H](CO)NC(=O)[C@H](CO)NC(=O)[C@H](Cc1c[nH]cn1)NC(=O)[C@H](CCCNC(=N)N)NC(=O)[C@H](CC(C)C)NC(=O)[C@H](Cc1ccccc1)NC(=O)[C@H](C)NC(=O)[C@H](C)NC(=O)[C@H](CC(C)C)NC(=O)[C@H](CCCNC(=N)N)NC(=O)[C@H](CCC(N)=O)NC(=O)[C@@H](NC(=O)[C@H](C)NC(=O)[C@@H]1CSSC[C@H](NC(=O)[C@@H](N)CCCCNC(=O)COCCOCCNC(=O)CC[C@H](NC(=O)CCCCCCCCCCCCCCCCCCC(=O)O)C(=O)O)C(=O)N[C@@H](CC(N)=O)C(=O)N[C@@H]([C@@H](C)O)C(=O)N[C@@H](C)C(=O)N[C@@H]([C@@H](C)O)C(=O)N1)[C@@H](C)O)C(=O)N1CCC[C@H]1C(=O)N[C@@H](CO)C(=O)N[C@@H](CO)C(=O)N[C@H](C(=O)N1CCC[C@H]1C(=O)N[C@H](C(=O)NCC(=O)N[C@@H](CO)C(=O)N[C@@H](CC(N)=O)C(=O)N[C@H](C(=O)N[C@@H](Cc1ccc(O)cc1)C(N)=O)[C@@H](C)O)C(C)C)[C@@H](C)O, also called compound 72) | 0.106 nM | 44.9 | 4.76 nM
3 | K([AEEA-γGlu-C20 diacid])CNTATCATQRLANFLRHSSPNFGAIPSSTNVGHNTY-NH2 (disulfide 2-7; N-terminus assumed; SMILES CC[C@H](C)[C@H](NC(=O)[C@H](C)NC(=O)CNC(=O)[C@H](Cc1ccccc1)NC(=O)[C@H](CC(N)=O)NC(=O)[C@@H]1CCCN1C(=O)[C@H](CO)NC(=O)[C@H](CO)NC(=O)[C@H](Cc1c[nH]cn1)NC(=O)[C@H](CCCNC(=N)N)NC(=O)[C@H](CC(C)C)NC(=O)[C@H](Cc1ccccc1)NC(=O)[C@H](CC(N)=O)NC(=O)[C@H](C)NC(=O)[C@H](CC(C)C)NC(=O)[C@H](CCCNC(=N)N)NC(=O)[C@H](CCC(N)=O)NC(=O)[C@@H](NC(=O)[C@H](C)NC(=O)[C@@H]1CSSC[C@H](NC(=O)[C@@H](N)CCCCNC(=O)COCCOCCNC(=O)CC[C@H](NC(=O)CCCCCCCCCCCCCCCCCCC(=O)O)C(=O)O)C(=O)N[C@@H](CC(N)=O)C(=O)N[C@@H]([C@@H](C)O)C(=O)N[C@@H](C)C(=O)N[C@@H]([C@@H](C)O)C(=O)N1)[C@@H](C)O)C(=O)N1CCC[C@H]1C(=O)N[C@@H](CO)C(=O)N[C@@H](CO)C(=O)N[C@H](C(=O)N[C@@H](CC(N)=O)C(=O)N[C@H](C(=O)NCC(=O)N[C@@H](Cc1c[nH]cn1)C(=O)N[C@@H](CC(N)=O)C(=O)N[C@H](C(=O)N[C@@H](Cc1ccc(O)cc1)C(N)=O)[C@@H](C)O)C(C)C)[C@@H](C)O, also called compound 76) | 0.297 nM | 24.8 | 7.37 nM
4 | K([AEEA-γGlu-C20 diacid])CNTATCATQRLARFLRHSSPNFGAIPSSTPVGSNTY-NH2 (disulfide 2-7; N-terminus assumed; SMILES CC[C@H](C)[C@H](NC(=O)[C@H](C)NC(=O)CNC(=O)[C@H](Cc1ccccc1)NC(=O)[C@H](CC(N)=O)NC(=O)[C@@H]1CCCN1C(=O)[C@H](CO)NC(=O)[C@H](CO)NC(=O)[C@H](Cc1c[nH]cn1)NC(=O)[C@H](CCCNC(=N)N)NC(=O)[C@H](CC(C)C)NC(=O)[C@H](Cc1ccccc1)NC(=O)[C@H](CCCNC(=N)N)NC(=O)[C@H](C)NC(=O)[C@H](CC(C)C)NC(=O)[C@H](CCCNC(=N)N)NC(=O)[C@H](CCC(N)=O)NC(=O)[C@@H](NC(=O)[C@H](C)NC(=O)[C@@H]1CSSC[C@H](NC(=O)[C@@H](N)CCCCNC(=O)COCCOCCNC(=O)CC[C@H](NC(=O)CCCCCCCCCCCCCCCCCCC(=O)O)C(=O)O)C(=O)N[C@@H](CC(N)=O)C(=O)N[C@@H]([C@@H](C)O)C(=O)N[C@@H](C)C(=O)N[C@@H]([C@@H](C)O)C(=O)N1)[C@@H](C)O)C(=O)N1CCC[C@H]1C(=O)N[C@@H](CO)C(=O)N[C@@H](CO)C(=O)N[C@H](C(=O)N1CCC[C@H]1C(=O)N[C@H](C(=O)NCC(=O)N[C@@H](CO)C(=O)N[C@@H](CC(N)=O)C(=O)N[C@H](C(=O)N[C@@H](Cc1ccc(O)cc1)C(N)=O)[C@@H](C)O)C(C)C)[C@@H](C)O, also called compound 64) | 0.378 nM | 60.7 | 22.9 nM
5 | K([AEEA-γGlu-C20 diacid])CNTATCATQRLANFLRHSSPNFGAIPSSTNVGRNTY-NH2 (disulfide 2-7; N-terminus assumed; SMILES CC[C@H](C)[C@H](NC(=O)[C@H](C)NC(=O)CNC(=O)[C@H](Cc1ccccc1)NC(=O)[C@H](CC(N)=O)NC(=O)[C@@H]1CCCN1C(=O)[C@H](CO)NC(=O)[C@H](CO)NC(=O)[C@H](Cc1c[nH]cn1)NC(=O)[C@H](CCCNC(=N)N)NC(=O)[C@H](CC(C)C)NC(=O)[C@H](Cc1ccccc1)NC(=O)[C@H](CC(N)=O)NC(=O)[C@H](C)NC(=O)[C@H](CC(C)C)NC(=O)[C@H](CCCNC(=N)N)NC(=O)[C@H](CCC(N)=O)NC(=O)[C@@H](NC(=O)[C@H](C)NC(=O)[C@@H]1CSSC[C@H](NC(=O)[C@@H](N)CCCCNC(=O)COCCOCCNC(=O)CC[C@H](NC(=O)CCCCCCCCCCCCCCCCCCC(=O)O)C(=O)O)C(=O)N[C@@H](CC(N)=O)C(=O)N[C@@H]([C@@H](C)O)C(=O)N[C@@H](C)C(=O)N[C@@H]([C@@H](C)O)C(=O)N1)[C@@H](C)O)C(=O)N1CCC[C@H]1C(=O)N[C@@H](CO)C(=O)N[C@@H](CO)C(=O)N[C@H](C(=O)N[C@@H](CC(N)=O)C(=O)N[C@H](C(=O)NCC(=O)N[C@@H](CCCNC(=N)N)C(=O)N[C@@H](CC(N)=O)C(=O)N[C@H](C(=O)N[C@@H](Cc1ccc(O)cc1)C(N)=O)[C@@H](C)O)C(C)C)[C@@H](C)O, also called compound 78) | 0.316 nM | 25.8 | 8.17 nM

Second part, the binder after the results:

Row | hAmylin-R funct. EC50 [1] | Ratio hCT/hAmylin funct. (hCTR EC50 against hAmylin-R EC50) [2] | hCTR funct. EC50 [2] | Binder
6 | 0.164 nM | 16.4 | – | KCNTATCATQRLANFLRHSSPNFGAIPSSTNVGHNTY (alpha amino group of the N-terminal residue (Lys1) acylated with C20 diacid-gGlu; disulfide bridge Cys2-Cys7; C-terminal amide, also called compound 40) [N^α1-[(4S)-4-carboxy-4-(19-carboxynonadecanoylamino)butanoyl]-[Arg17,Pro21,Pro27,His34]-h-amylin]
7 | 0.064 nM | 9.8 | 0.625 nM | K([AEEA-γGlu-C20 diacid])CNTATCATQRLANFLRHSSPNFGAIPPSTPVGSNTY-NH2 (disulfide 2-7, also called compound 53)
8 | 0.217 nM | 11.6 | 2.52 nM | KCNTATCATQRLANFLRHSSPNFGAIPSSTNVGRNTY (alpha amino group of the N-terminal residue (Lys1) acylated with C20 diacid-gGlu; disulfide bridge Cys2-Cys7; C-terminal amide, also called compound 39) [N^α1-[(4S)-4-carboxy-4-(19-carboxynonadecanoylamino)butanoyl]-[Arg17,Pro21,Pro27,Arg34]-h-amylin]
